Test results from paper PMC7367873, “Dissecting the sequence determinants for dephosphorylation by the catalytic subunits of phosphatases PP1 and PP2A” (Nature Communications, 2020).
One block for each molecule: values may come before it.

Key:
[1] = system: GFP-14-3-3β; assay: GFP-14-3-3β co-IP with LC-MS/MS, untreated GFP-14-3-3β versus GFP control (14-3-3 interactome); format: binding, human; details: 3 replicates each
[2] = system: GFP-14-3-3β and its binding proteins; assay: GFP-14-3-3β co-IP with LC-MS/MS label-free quantification, untreated versus PP1c-treated; design: species or system human; details: 3 replicates each
[3] = untreated vs GFP, LFQ intensities
[4] = PP1 vs untreated, LFQ intensities

B1: FLOT1 (protein, UniProt O75955 1-427, looked up)
Flotillin-1: MFFTCGPNEAMVVSGFCRSPPVMVAGGRVFVLPCIQQIQRISLNTLTLNVKSEKVYTRHGVPISVTGIAQVKIQGQNKEMLAAACQMFLGKTEAEIAHIALETLEGHQRAIMAHMTVEEIYKDRQKFSEQVFKVASSDLVNMGISVVSYTLKDIHDDQDYLHSLGKARTAQVQKDARIGEAEAKRDAGIREAKAKQEKVSAQYLSEIEMAKAQRDYELKKAAYDIEVNTRRAQADLAYQLQVAKTKQQIEEQRVQVQVVERAQQVAVQEQEIARREKELEARVRKPAEAERYKLERLAEAEKSQLIMQAEAEAASVRMRGEAEAFAIGARARAEAEQMAKKAEAFQLYQEAAQLDMLLEKLPQVAEEISGPLTSANKITLVSSGSGTMGAAKVTGEVLDILTRLPESVERLTGVSISQVNHKPLRTA
Difference (log2), untreated vs GFP [1, 3]: -0.5076 log2
Difference (log2), PP1 vs untreated [2, 4]: 0.376 log2

B2: BAG2 (protein, UniProt O95816 2-211, looked up)
BAG family molecular …: AQAKINAKANEGRFCRSSSMADRSSRLLESLDQLELRVEALREAATAVEQEKEILLEMIHSIQNSQDMRQISDGEREELNLTANRLMGRTLTVEVSVETIRNPQQQESLKHATRIIDEVVNKFLDDLGNAKSHLMSLYSACSSEVPHGPVDQKFQSIVIGCALEDQKKIKRRLETLLRNIENSDKAIKLLEHSKGAGSKTLQQNAESRFN
Difference (log2), untreated vs GFP ([1]; log2 difference, pairwise comparison untreated vs GFP, label-free quantification): -1.564
Difference (log2), PP1 vs untreated ([2]; log2 difference, pairwise comparison PP1 vs untreated, label-free quantification): 2.1096

B3: BSG (protein, UniProt P35613 22-385, looked up)
Basigin: AAGFVQAPLSQQRWVGGSVELHCEAVGSPVPEIQWWFEGQGPNDTCSQLWDGARLDRVHIHATYHQHAASTISIDTLVEEDTGTYECRASNDPDRNHLTRAPRVKWVRAQAVVLVLEPGTVFTTVEDLGSKILLTCSLNDSATEVTGHRWLKGGVVLKEDALPGQKTEFKVDSDDQWGEYSCVFLPEPMGTANIQLHGPPRVKAVKSSEHINEGETAMLVCKSESVPPVTDWAWYKITDSEDKALMNGSESRFFVSSSQGRSELHIENLNMEADPGQYRCNGTSSKGSDQAIITLRVRSHLAALWPFLGIVAEVLVLVTIIFIYEKRRKPEDVLDDDDAGSAPLKSSGQHQNDKGKNVRQRNSS
Difference (log2), untreated vs GFP [1, 3]: 0.07198 log2
Difference (log2), PP1 vs untreated [2, 4]: 0.3522 log2

B6: HLTF (protein, UniProt Q14527 1-1009, looked up)
Helicase-like transcription …: MSWMFKRDPVWKYLQTVQYGVHGNFPRLSYPTFFPRFEFQDVIPPDDFLTSDEEVDSVLFGSLRGHVVGLRYYTGVVNNNEMVALQRDPNNPYDKNAIKVNNVNGNQVGHLKKELAGALAYIMDNKLAQIEGVVPFGANNAFTMPLHMTFWGKEENRKAVSDQLKKHGFKLGPAPKTLGFNLESGWGSGRAGPSYSMPVHAAVQMTTEQLKTEFDKLFEDLKEDDKTHEMEPAEAIETPLLPHQKQALAWMVSRENSKELPPFWEQRNDLYYNTITNFSEKDRPENVHGGILADDMGLGKTLTAIAVILTNFHDGRPLPIERVKKNLLKKEYNVNDDSMKLGGNNTSEKADGLSKDASRCSEQPSISDIKEKSKFRMSELSSSRPKRRKTAVQYIESSDSEEIETSELPQKMKGKLKNVQSETKGRAKAGSSKVIEDVAFACALTSSVPTTKKKMLKKGACAVEGSKKTDVEERPRTTLIICPLSVLSNWIDQFGQHIKSDVHLNFYVYYGPDRIREPALLSKQDIVLTTYNILTHDYGTKGDSPLHSIRWLRVILDEGHAIRNPNAQQTKAVLDLESERRWVLTGTPIQNSLKDLWSLLSFLKLKPFIDREWWHRTIQRPVTMGDEGGLRRLQSLIKNITLRRTKTSKIKGKPVLELPERKVFIQHITLSDEERKIYQSVKNEGRATIGRYFNEGTVLAHYADVLGLLLRLRQICCHTYLLTNAVSSNGPSGNDTPEELRKKLIRKMKLILSSGSDEECAICLDSLTVPVITHCAHVFCKPCICQVIQNEQPHAKCPLCRNDIHEDNLLECPPEELARDSEKKSDMEWTSSSKINALMHALTDLRKKNPNIKSLVVSQFTTFLSLIEIPLKASGFVFTRLDGSMAQKKRVESIQCFQNTEAGSPTIMLLSLKAGGVGLNLSAASRVFLMDPAWNPAAEDQCFDRCHRLGQKQEVIITKFIVKDSVEENMLKIQNKKRELAAGAFGTKKPNADEMKQAKINEIRTLIDL
Difference (log2), untreated vs GFP [1, 3]: 1.079 log2
Difference (log2), PP1 vs untreated [2, 4]: 0.3278 log2

B8: ERC1 (protein, UniProt Q8IUD2 1-1116, looked up)
ELKS/Rab6-interacting/CAST …: MYGSARSVGKVEPSSQSPGRSPRLPRSPRLGHRRTNSTGGSSGSSVGGGSGKTLSMENIQSLNAAYATSGPMYLSDHENVGSETPKSTMTLGRSGGRLPYGVRMTAMGSSPNIASSGVASDTIAFGEHHLPPVSMASTVPHSLRQARDNTIMDLQTQLKEVLRENDLLRKDVEVKESKLSSSMNSIKTFWSPELKKERALRKDEASKITIWKEQYRVVQEENQHMQMTIQALQDELRIQRDLNQLFQQDSSSRTGEPCVAELTEENFQRLHAEHERQAKELFLLRKTLEEMELRIETQKQTLNARDESIKKLLEMLQSKGLSAKATEEDHERTRRLAEAEMHVHHLESLLEQKEKENSMLREEMHRRFENAPDSAKTKALQTVIEMKDSKISSMERGLRDLEEEIQMLKSNGALSTEEREEEMKQMEVYRSHSKFMKNKVEQLKEELSSKEAQWEELKKKAAGLQAEIGQVKQELSRKDTELLALQTKLETLTNQFSDSKQHIEVLKESLTAKEQRAAILQTEVDALRLRLEEKETMLNKKTKQIQDMAEEKGTQAGEIHDLKDMLDVKERKVNVLQKKIENLQEQLRDKEKQMSSLKERVKSLQADTTNTDTALTTLEEALAEKERTIERLKEQRDRDEREKQEEIDNYKKDLKDLKEKVSLLQGDLSEKEASLLDLKEHASSLASSGLKKDSRLKTLEIALEQKKEECLKMESQLKKAHEAALEARASPEMSDRIQHLEREITRYKDESSKAQAEVDRLLEILKEVENEKNDKDKKIAELERQVKDQNKKVANLKHKEQVEKKKSAQMLEEARRREDNLNDSSQQLQDSLRKKDDRIEELEEALRESVQITAEREMVLAQEESARTNAEKQVEELLMAMEKVKQELESMKAKLSSTQQSLAEKETHLTNLRAERRKHLEEVLEMKQEALLAAISEKDANIALLELSSSKKKTQEEVAALKREKDRLVQQLKQQTQNRMKLMADNYEDDHFKSSHSNQTNHKPSPDQIIQPLLELDQNRSKLKLYIGHLTTLCHDRDPLILRGLTPPASYNLDDDQAAWENELQKMTRGQLQDELEKGERDNAELQEFANAILQQIADHCPDILEQVVNALEESS
Difference (log2), untreated vs GFP [1, 3]: 2.543 log2
Difference (log2), PP1 vs untreated [2, 4]: 0.3326 log2

Further lines, with some results ahead:

Difference (log2), PP1 vs untreated [2, 4]: 0.3509 log2
B4: WBP11 (protein, UniProt Q9Y2W2 1-641, looked up)
WW domain-binding protein 11: MGRRSTSSTKSGKFMNPTDQARKEARKRELKKNKKQRMMVRAAVLKMKDPKQIIRDMEKLDEMEFNPVQQPQLNEKVLKDKRKKLRETFERILRLYEKENPDIYKELRKLEVEYEQKRAQLSQYFDAVKNAQHVEVESIPLPDMPHAPSNILIQDIPLPGAQPPSILKKTSAYGPPTRAVSILPLLGHGVPRLPPGRKPPGPPPGPPPPQVVQMYGRKVGFALDLPPRRRDEDMLYSPELAQRGHDDDVSSTSEDDGYPEDMDQDKHDDSTDDSDTDKSDGESDGDEFVHRDNGERDNNEEKKSGLSVRFADMPGKSRKKKKNMKELTPLQAMMLRMAGQEIPEEGREVEEFSEDDDEDDSDDSEAEKQSQKQHKEESHSDGTSTASSQQQAPPQSVPPSQIQAPPMPGPPPLGPPPAPPLRPPGPPTGLPPGPPPGAPPFLRPPGMPGLRGPLPRLLPPGPPPGRPPGPPPGPPPGLPPGPPPRGPPPRLPPPAPPGIPPPRPGMMRPPLVPPLGPAPPGLFPPAPLPNPGVLSAPPNLIQRPKADDTSAATIEKKATATISAKPQITNPKAEITRFVPTALRVRRENKGATAAPQRKSEDDSAVPLAKAAPKSGPSVPVSVQTKDDVYEAFMKEMEGLL
Difference (log2), untreated vs GFP [1, 3]: 1.895 log2

Difference (log2), PP1 vs untreated [2, 4]: 0.3437 log2
B5: SRP14 (protein, UniProt P37108 2-136, looked up)
Signal recognition particle …: VLLESEQFLTELTRLFQKCRTSGSVYITLKKYDGRTKPIPKKGTVEGFEPADNKCLLRATDGKKKISTVVSSKEVNKFQMAYSNLLRANMDGLKKRDKKNKTKKTKAAAAAAAAAPAAAATAPTTAATTAATAAQ
Difference (log2), untreated vs GFP [1, 3]: 1.473 log2

Difference (log2), PP1 vs untreated [2, 4]: 0.3965 log2
B7: NFX1 (protein, UniProt Q12986 1-1120, looked up)
Transcriptional repressor …: MAEAPPVSGTFKFNTDAAEFIPQEKKNSGLNCGTQRRLDSNRIGRRNYSSPPPCHLSRQVPYDEISAVHQHSYHPSGSKPKSQQTSFQSSPCNKSPKSHGLQNQPWQKLRNEKHHIRVKKAQSLAEQTSDTAGLESSTRSESGTDLREHSPSESEKEVVGADPRGAKPKKATQFVYSYGRGPKVKGKLKCEWSNRTTPKPEDAGPESTKPVGVFHPDSSEASSRKGVLDGYGARRNEQRRYPQKRPPWEVEGARPRPGRNPPKQEGHRHTNAGHRNNMGPIPKDDLNERPAKSTCDSENLAVINKSSRRVDQEKCTVRRQDPQVVSPFSRGKQNHVLKNVETHTGSLIEQLTTEKYECMVCCELVRVTAPVWSCQSCYHVFHLNCIKKWARSPASQADGQSGWRCPACQNVSAHVPNTYTCFCGKVKNPEWSRNEIPHSCGEVCRKKQPGQDCPHSCNLLCHPGPCPPCPAFMTKTCECGRTRHTVRCGQAVSVHCSNPCENILNCGQHQCAELCHGGQCQPCQIILNQVCYCGSTSRDVLCGTDVGKSDGFGDFSCLKICGKDLKCGNHTCSQVCHPQPCQQCPRLPQLVRCCPCGQTPLSQLLELGSSSRKTCMDPVPSCGKVCGKPLPCGSLDFIHTCEKLCHEGDCGPCSRTSVISCRCSFRTKELPCTSLKSEDATFMCDKRCNKKRLCGRHKCNEICCVDKEHKCPLICGRKLRCGLHRCEEPCHRGNCQTCWQASFDELTCHCGASVIYPPVPCGTRPPECTQTCARVHECDHPVYHSCHSEEKCPPCTFLTQKWCMGKHEFRSNIPCHLVDISCGLPCSATLPCGMHKCQRLCHKGECLVDEPCKQPCTTPRADCGHPCMAPCHTSSPCPVTACKAKVELQCECGRRKEMVICSEASSTYQRIAAISMASKITDMQLGGSVEISKLITKKEVHQARLECDEECSALERKKRLAEAFHISEDSDPFNIRSSGSKFSDSLKEDARKDLKFVSDVEKEMETLVEAVNKGKNSKKSHSFPPMNRDHRRIIHDLAQVYGLESVSYDSEPKRNVVVTAIRGKSVCPPTTLTGVLEREMQARPPPPIPHHRHQSDKNPGSSNLQKITKEPIIDYFDVQD
Difference (log2), untreated vs GFP [1, 3]: 0.9482 log2
